Measurements taken from patent publication US20260234252A1 (Janssen / Centocor, published 2026).
“And” between values parts separate entries of the source, which are not always exact repeats. Equal values may be shown once.

Target: T1, Vβ17 on human CD8+ T cells (human)
T1 construct: whole, on cells; Polyclonal donor T cells; also called Vβ17+ CD8+ T cells; M1-stimulated T-cells
Assay: flow cytometry on FLU MP 58 stimulated CD8+ T cells, anti-human IgG4 Fc-PE
Experimental: Mouse anti-human IgG4 Fc-PE secondary antibody was used to detect the bispecific antibody.
Bispecific antibody binding affinities to CD8+ T cell were determined by flow cytometry.

T1 sequence (A0A075B6N1 22-114): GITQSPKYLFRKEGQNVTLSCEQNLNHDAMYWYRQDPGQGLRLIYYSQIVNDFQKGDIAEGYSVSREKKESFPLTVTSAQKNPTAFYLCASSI

Binder	EC50
VB11 (anti-Vβ17/anti-CD123) bispecific antibody (bispecific antibody, human IgG4 S228P, kappa, F234A L235A, also called Vβ17 and CD123 bispecific) heavy 1: QVQLQESGPGLVKPSETLSLTCTVSGYSITSGYFWNWIRQPPGKGLEWIGYISYDGSNNYNPSLKSRVTISRDTSKNQFSLKLSSVTAADTAVYYCASPSPGTGYAVDYWGQGTLVTVSSASTKGPSVFPLAPCSRSTSESTAALGCLVKDYFPEPVTVSWNSGALTSGVHTFPAVLQSSGLYSLSSVVTVPSSSLGTKTYTCNVDHKPSNTKVDKRVESKYGPPCPPCPAPEAAGGPSVFLFPPKPKDTLMISRTPEVTCVVVDVSQEDPEVQFNWYVDGVEVHNAKTKPREEQFNSTYRVVSVLTVLHQDWLNGKEYKCKVSNKGLPSSIEKTISKAKGQPREPQVYTLPPSQEEMTKNQVSLSCAVKGFYPSDIAVEWESNGQPENNYKTTPPVLDSDGSFFLVSRLTVDKSRWQEGNVFSCSVMHEALHNRFTQKSLSLSLGK light 1: DIQMTQSPSSLSASVGDRVTITCRSSQSLVHSNGNTYLHWYQQKPGKAPKFLIYKVSNRFSGVPSRFSGSGSGTDFTLTISSLQPEDFATYYCSQSTHVPFTFGQGTKLEIKRTVAAPSVFIFPPSDEQLKSGTASVVCLLNNFYPREAKVQWKVDNALQSGNSQESVTEQDSKDSTYSLSSTLTLSKADYEKHKVYACEVTHQGLSSPVTKSFNRGEC heavy 2: EVQLVQSGAEVKKPGESLKISCKGSGYSFTSYWISWVRQMPGKGLEWMGIIDPSDSDTRYSPSFQGQVTISADKSISTAYLQWSSLKASDTAMYYCARGDGSTDLDYWGQGTLVTVSSASTKGPSVFPLAPCSRSTSESTAALGCLVKDYFPEPVTVSWNSGALTSGVHTFPAVLQSSGLYSLSSVVTVPSSSLGTKTYTCNVDHKPSNTKVDKRVESKYGPPCPPCPAPEAAGGPSVFLFPPKPKDTLMISRTPEVTCVVVDVSQEDPEVQFNWYVDGVEVHNAKTKPREEQFNSTYRVVSVLTVLHQDWLNGKEYKCKVSNKGLPSSIEKTISKAKGQPREPQVYTLPPSQEEMTKNQVSLWCLVKGFYPSDIAVEWESNGQPENNYKTTPPVLDSDGSFFLYSRLTVDKSRWQEGNVFSCSVMHEALHNHYTQKSLSLSLGK light 2: EIVLTQSPGTLSLSPGERATLSCRASQSVSSSYLAWYQQKPGQAPRLLIYGASSRATGIPDRFSGSGSGTDFTLTISRLEPEDFAVYYCQQDYGFPWTFGQGTKVEIKRTVAAPSVFIFPPSDEQLKSGTASVVCLLNNFYPREAKVQWKVDNALQSGNSQESVTEQDSKDSTYSLSSTLTLSKADYEKHKVYACEVTHQGLSSPVTKSFNRGEC	1.35 µg/mL and 9 nM
VB13 (Vβ17×Null) bispecific antibody (bispecific antibody, human IgG4 S228P, kappa, F234A L235A, also called Vβ17XNULL; Vβ17 x Null) heavy 1: QVQLQESGPGLVKPSETLSLTCTVSGYSITSGYFWNWIRQPPGKGLEWIGYISYDGSNNYNPSLKSRVTISRDTSKNQFSLKLSSVTAADTAVYYCASPSPGTGYAVDYWGQGTLVTVSSASTKGPSVFPLAPCSRSTSESTAALGCLVKDYFPEPVTVSWNSGALTSGVHTFPAVLQSSGLYSLSSVVTVPSSSLGTKTYTCNVDHKPSNTKVDKRVESKYGPPCPPCPAPEAAGGPSVFLFPPKPKDTLMISRTPEVTCVVVDVSQEDPEVQFNWYVDGVEVHNAKTKPREEQFNSTYRVVSVLTVLHQDWLNGKEYKCKVSNKGLPSSIEKTISKAKGQPREPQVYTLPPSQEEMTKNQVSLSCAVKGFYPSDIAVEWESNGQPENNYKTTPPVLDSDGSFFLVSRLTVDKSRWQEGNVFSCSVMHEALHNRFTQKSLSLSLGK light 1: DIQMTQSPSSLSASVGDRVTITCRSSQSLVHSNGNTYLHWYQQKPGKAPKFLIYKVSNRFSGVPSRFSGSGSGTDFTLTISSLQPEDFATYYCSQSTHVPFTFGQGTKLEIKRTVAAPSVFIFPPSDEQLKSGTASVVCLLNNFYPREAKVQWKVDNALQSGNSQESVTEQDSKDSTYSLSSTLTLSKADYEKHKVYACEVTHQGLSSPVTKSFNRGEC heavy 2: not shown light 2: not shown	2.8 µg/mL and 18.7 nM
